Data: publication PMC6175577, “BRCT domains of the DNA damage checkpoint proteins TOPBP1/Rad4 display distinct specificities for phosphopeptide ligands” (eLife, 2018)
One block for each substance: values may come before it.

What was measured:
TOPBP1 BRCT0,1,2 = TOPBP1 BRCT0,1,2 (UniProt Q92547); assay: fluorescence polarisation titration; settings: reference: pT202 peptide, untreated; sites T202
[1] = target: RAD9 pS387 (Homo sapiens) (UniProt Q99638); settings: cited from earlier work
[2] = target: RHNO1 pT202 fluorescein-labelled phosphopeptide (human); assay: fluorescence polarisation; fluorescein-labelled peptide at 200 nM, increasing concentrations of recombinant protein; room temperature; 25 mM HEPES pH 7.5, 150 mM NaCl, 1 mM EDTA, 0.25 mM TCEP, 0.02% Tween-20; one site-specific binding model

Chain of RAD9 pS387 (Homo sapiens) (Q99638 whole entry): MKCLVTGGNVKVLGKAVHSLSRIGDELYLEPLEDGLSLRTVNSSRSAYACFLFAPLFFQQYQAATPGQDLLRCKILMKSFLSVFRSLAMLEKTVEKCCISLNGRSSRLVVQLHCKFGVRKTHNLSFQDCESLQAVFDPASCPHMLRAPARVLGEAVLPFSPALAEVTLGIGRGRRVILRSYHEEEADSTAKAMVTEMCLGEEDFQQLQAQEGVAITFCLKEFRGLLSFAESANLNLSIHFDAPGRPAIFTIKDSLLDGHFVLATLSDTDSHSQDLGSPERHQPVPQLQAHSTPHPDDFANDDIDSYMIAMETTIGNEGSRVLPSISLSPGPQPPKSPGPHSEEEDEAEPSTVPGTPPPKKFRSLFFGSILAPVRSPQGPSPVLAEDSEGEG
Chain of TOPBP1 BRCT1 (Q92547 98-192): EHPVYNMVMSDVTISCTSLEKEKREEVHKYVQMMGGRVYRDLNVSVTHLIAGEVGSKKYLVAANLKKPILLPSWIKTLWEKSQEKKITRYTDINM

binding against the reference (TOPBP1 BRCT0,1,2): lost
Substance: RHNO1 (from UniProt Q9BSD3) λ-phosphatase-dephosphorylated peptide

Substance: TOPBP1 BRCT1 (from UniProt Q92547)
Kd [1]: 2100 nM

fold tighter binding than RAD9-pS387 [2]: 10 fold
Substance: TOPBP1-BRCT0,1,2 segment, wild type (recombinant, fluorescence polarisation) (domain or fragment)
